Results taken from PMC9482650, “Quantitative fragmentomics allow affinity mapping of interactomes” (Nature Communications, 2022).

Columns and labels:
Assay in all cases: holdup assay
Design in all cases: key: below the threshold = too weak to quantify, mostly under pKd 3.1 to 4
AHNAK1, Q09666 = biological target: AHNAK1, Q09666
DVL3, Q92997 = biological target: T1, DVL3, Q92997
T1 sequence (Q92997 244-331, limits assumed, looked up): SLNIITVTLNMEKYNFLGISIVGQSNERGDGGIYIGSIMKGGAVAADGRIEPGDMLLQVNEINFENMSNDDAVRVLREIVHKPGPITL

SIPA1L2, Q9P2F8 = biological target: T2, SIPA1L2, Q9P2F8
T2 sequence (Q9P2F8 945-1036, limits assumed, looked up): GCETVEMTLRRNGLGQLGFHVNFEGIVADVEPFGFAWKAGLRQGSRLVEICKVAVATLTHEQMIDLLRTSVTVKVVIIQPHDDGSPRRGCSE

LNX1_2, Q8TBB1 = biological target: LNX1_2, Q8TBB1
SCRIB_2, Q14160 = biological target: SCRIB_2, Q14160
TJP1_2, Q07157 = biological target: TJP1_2, Q07157
SHANK1, Q9Y566 = biological target: T3, SHANK1, Q9Y566
T3 sequence (Q9Y566 658-767, limits assumed, looked up): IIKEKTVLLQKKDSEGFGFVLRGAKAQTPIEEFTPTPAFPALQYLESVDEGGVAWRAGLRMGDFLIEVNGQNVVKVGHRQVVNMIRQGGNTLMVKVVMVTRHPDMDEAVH

LIN7C, Q9NUP9 = biological target: T4, LIN7C, Q9NUP9
T4 sequence (Q9NUP9 88-185, limits assumed, looked up): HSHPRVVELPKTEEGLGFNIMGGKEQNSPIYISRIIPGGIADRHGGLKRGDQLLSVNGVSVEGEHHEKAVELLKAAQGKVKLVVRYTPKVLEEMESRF

MPDZ_5, O75970 = biological target: T5, MPDZ_5, O75970
T5 sequence (O75970 695-796, limits assumed, looked up): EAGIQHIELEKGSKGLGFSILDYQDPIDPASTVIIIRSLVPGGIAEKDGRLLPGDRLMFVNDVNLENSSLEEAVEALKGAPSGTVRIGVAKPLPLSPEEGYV

GRIP2_3, Q9C0E4 = biological target: GRIP2_3, Q9C0E4
FRMPD4, Q14CM0 = biological target: FRMPD4, Q14CM0
FRMPD2_3, Q68DX3 = biological target: FRMPD2_3, Q68DX3
LNX2_2, Q8N448 = biological target: T6, LNX2_2, Q8N448
T6 sequence (Q8N448 334-432, limits assumed, looked up): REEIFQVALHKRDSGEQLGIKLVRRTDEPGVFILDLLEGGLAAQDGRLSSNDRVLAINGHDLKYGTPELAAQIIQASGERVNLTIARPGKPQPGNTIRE

MAGI3_2, Q5TCQ9 = biological target: MAGI3_2, Q5TCQ9
PICK1, Q9NRD5 = biological target: PICK1, Q9NRD5
SNTB1, Q13884 = biological target: T7, SNTB1, Q13884
T7 sequence (Q13884 107-205, limits assumed, looked up): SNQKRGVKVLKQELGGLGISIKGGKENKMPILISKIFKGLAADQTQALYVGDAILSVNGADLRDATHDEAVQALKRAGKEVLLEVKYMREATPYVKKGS

DLG3_2, Q92796 = biological target: T8, DLG3_2, Q92796
T8 sequence (Q92796 221-321, limits assumed, looked up): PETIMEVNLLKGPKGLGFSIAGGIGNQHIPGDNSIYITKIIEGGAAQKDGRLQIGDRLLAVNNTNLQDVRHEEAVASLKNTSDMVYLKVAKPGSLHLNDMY

GORASP2, Q9H8Y8 = biological target: GORASP2, Q9H8Y8
Inadl_2, Q8NI35 = biological target: Inadl_2, Q8NI35
GRID2IP_1, A4D2P6 = biological target: GRID2IP_1, A4D2P6
NHERF3_3, Q5T2W1 = biological target: T9, NHERF3_3, Q5T2W1
T9 sequence (Q5T2W1 238-333, limits assumed, looked up): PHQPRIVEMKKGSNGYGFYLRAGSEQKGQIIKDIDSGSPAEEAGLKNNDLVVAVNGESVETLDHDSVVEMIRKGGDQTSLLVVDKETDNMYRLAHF

DFNB31_3, Q9P202 = biological target: T10, DFNB31_3, Q9P202
T10 sequence (Q9P202 811-907, limits assumed, looked up): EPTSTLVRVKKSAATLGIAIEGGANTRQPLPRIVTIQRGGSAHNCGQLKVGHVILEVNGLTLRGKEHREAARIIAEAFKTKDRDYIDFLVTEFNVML

GORASP1, Q9BQQ3 = biological target: GORASP1, Q9BQQ3
NHERF3_4, Q5T2W1 = biological target: T11, NHERF3_4, Q5T2W1
T11 sequence (Q5T2W1 373-468, limits assumed, looked up): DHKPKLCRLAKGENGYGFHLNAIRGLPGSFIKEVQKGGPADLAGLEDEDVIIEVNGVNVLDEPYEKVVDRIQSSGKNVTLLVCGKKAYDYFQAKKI

GRIP1_5, Q9Y3R0 = biological target: T12, GRIP1_5, Q9Y3R0
T12 sequence (Q9Y3R0 568-668, limits assumed, looked up): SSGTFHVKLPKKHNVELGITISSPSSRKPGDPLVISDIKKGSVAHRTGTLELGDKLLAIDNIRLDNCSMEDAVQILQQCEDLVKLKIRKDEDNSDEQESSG

[1] = plain residues with an end cap or a label only (N-terminal biotin on a linker: ado-ado)
[2] = plain residues with an end cap or a label only (N-terminal biotin on a linker: ahx)
[3] = plain residues with an end cap or a label only (N-terminal biotin on a linker: (peg)3)

Sequence of AHNAK1, Q09666 (Q09666 4-100): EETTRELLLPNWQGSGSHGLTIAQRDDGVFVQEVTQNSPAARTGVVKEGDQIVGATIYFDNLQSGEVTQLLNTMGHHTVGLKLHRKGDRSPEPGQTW
Sequence of GORASP1, Q9BQQ3 (Q9BQQ3 1-208): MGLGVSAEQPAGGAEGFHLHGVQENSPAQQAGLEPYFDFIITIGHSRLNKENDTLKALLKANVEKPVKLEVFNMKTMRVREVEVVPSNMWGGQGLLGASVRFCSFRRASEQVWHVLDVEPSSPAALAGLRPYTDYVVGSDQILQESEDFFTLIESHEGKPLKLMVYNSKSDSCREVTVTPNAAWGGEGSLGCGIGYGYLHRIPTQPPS
Sequence of MAGI3_2, Q5TCQ9 (Q5TCQ9 398-503): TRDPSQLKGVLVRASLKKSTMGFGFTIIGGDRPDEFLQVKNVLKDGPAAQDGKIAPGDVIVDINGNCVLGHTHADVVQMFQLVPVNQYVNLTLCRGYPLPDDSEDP
Sequence of GRID2IP_1, A4D2P6 (A4D2P6 1-87): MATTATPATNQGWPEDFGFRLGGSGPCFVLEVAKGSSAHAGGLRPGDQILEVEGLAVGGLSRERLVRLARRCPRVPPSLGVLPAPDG
Sequence of FRMPD4, Q14CM0 (Q14CM0 67-160): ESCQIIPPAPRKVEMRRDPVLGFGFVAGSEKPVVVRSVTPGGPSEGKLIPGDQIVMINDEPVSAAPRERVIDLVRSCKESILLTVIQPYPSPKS
Sequence of LNX1_2, Q8TBB1 (Q8TBB1 371-470): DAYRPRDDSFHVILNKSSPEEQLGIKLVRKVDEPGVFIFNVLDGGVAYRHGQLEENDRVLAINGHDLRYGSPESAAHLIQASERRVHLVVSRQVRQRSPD
Sequence of SCRIB_2, Q14160 (Q14160 857-960): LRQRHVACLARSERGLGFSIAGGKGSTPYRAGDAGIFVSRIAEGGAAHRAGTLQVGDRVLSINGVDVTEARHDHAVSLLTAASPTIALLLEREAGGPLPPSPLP
Sequence of FRMPD2_3, Q68DX3 (Q68DX3 1073-1166): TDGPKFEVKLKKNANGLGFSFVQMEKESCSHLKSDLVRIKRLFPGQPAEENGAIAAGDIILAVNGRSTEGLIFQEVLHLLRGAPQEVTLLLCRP
Sequence of Inadl_2, Q8NI35 (Q8NI35 238-335): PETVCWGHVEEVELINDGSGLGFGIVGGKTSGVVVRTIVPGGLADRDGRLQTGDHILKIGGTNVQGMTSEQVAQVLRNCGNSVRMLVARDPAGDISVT
Sequence of GRIP2_3, Q9C0E4 (Q9C0E4 238-339): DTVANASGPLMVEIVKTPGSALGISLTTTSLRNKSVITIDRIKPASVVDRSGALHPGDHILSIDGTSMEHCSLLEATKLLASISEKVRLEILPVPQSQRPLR
Sequence of PICK1, Q9NRD5 (Q9NRD5 17-115): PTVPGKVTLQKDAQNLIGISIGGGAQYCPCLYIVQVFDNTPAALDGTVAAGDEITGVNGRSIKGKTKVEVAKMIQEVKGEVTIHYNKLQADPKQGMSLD
Sequence of TJP1_2, Q07157 (Q07157 181-274): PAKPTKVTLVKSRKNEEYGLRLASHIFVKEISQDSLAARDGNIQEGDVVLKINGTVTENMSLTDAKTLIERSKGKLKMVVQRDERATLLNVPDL

NTANRRTTPV [CACNG2, Q9Y698]
pKd (AHNAK1, Q09666; [1]): below the threshold
pKd (DVL3, Q92997; [1]): below the threshold
pKd (SIPA1L2, Q9P2F8; [1]): below the threshold
pKd (LNX1_2, Q8TBB1; [1]): below the threshold
pKd (SCRIB_2, Q14160; [1]): below the threshold
pKd (TJP1_2, Q07157; [1]): below the threshold
pKd (SHANK1, Q9Y566; [1]): below the threshold
pKd (LIN7C, Q9NUP9; [1]): below the threshold
pKd (MPDZ_5, O75970; [1]): below the threshold
pKd (GRIP2_3, Q9C0E4; [1]): below the threshold
pKd (FRMPD4, Q14CM0; [1]): below the threshold
pKd (FRMPD2_3, Q68DX3; [1]): below the threshold
pKd (LNX2_2, Q8N448; [1]): below the threshold
pKd (MAGI3_2, Q5TCQ9; [1]): 5.16
pKd (PICK1, Q9NRD5; [1]): below the threshold
pKd (SNTB1, Q13884; [1]): 4.23
pKd (DLG3_2, Q92796; [1]): 4.44
pKd (GORASP2, Q9H8Y8; [1]): below the threshold
pKd (Inadl_2, Q8NI35; [1]): below the threshold
pKd (GRID2IP_1, A4D2P6; [1]): below the threshold
pKd (NHERF3_3, Q5T2W1; [1]): below the threshold
pKd (DFNB31_3, Q9P202; [1]): below the threshold
pKd (GORASP1, Q9BQQ3; [1]): below the threshold
pKd (NHERF3_4, Q5T2W1; [1]): 3.5
pKd (GRIP1_5, Q9Y3R0; [1]): below the threshold

TQKFRASTAL [FRMPD1, Q5SYB0]
pKd (AHNAK1, Q09666; [2]): below the threshold
pKd (DVL3, Q92997; [2]): below the threshold
pKd (SIPA1L2, Q9P2F8; [2]): below the threshold
pKd (LNX1_2, Q8TBB1; [2]): below the threshold
pKd (SCRIB_2, Q14160; [2]): below the threshold
pKd (TJP1_2, Q07157; [2]): below the threshold
pKd (SHANK1, Q9Y566; [2]): 4.62
pKd (LIN7C, Q9NUP9; [2]): 3.52
pKd (MPDZ_5, O75970; [2]): below the threshold
pKd (GRIP2_3, Q9C0E4; [2]): below the threshold
pKd (FRMPD4, Q14CM0; [2]): 3.73
pKd (FRMPD2_3, Q68DX3; [2]): below the threshold
pKd (LNX2_2, Q8N448; [2]): below the threshold
pKd (MAGI3_2, Q5TCQ9; [2]): 4.28
pKd (PICK1, Q9NRD5; [2]): below the threshold
pKd (SNTB1, Q13884; [2]): below the threshold
pKd (DLG3_2, Q92796; [2]): below the threshold
pKd (GORASP2, Q9H8Y8; [2]): below the threshold
pKd (Inadl_2, Q8NI35; [2]): below the threshold
pKd (GRID2IP_1, A4D2P6; [2]): below the threshold
pKd (NHERF3_3, Q5T2W1; [2]): below the threshold
pKd (DFNB31_3, Q9P202; [2]): below the threshold
pKd (GORASP1, Q9BQQ3; [2]): 3.51
pKd (NHERF3_4, Q5T2W1; [2]): 4.54
pKd (GRIP1_5, Q9Y3R0; [2]): below the threshold

RRRRSQSRESQC [HBV-HBc, P03193]
pKd (AHNAK1, Q09666; [3]): below the threshold
pKd (DVL3, Q92997; [3]): below the threshold
pKd (SIPA1L2, Q9P2F8; [3]): below the threshold
pKd (LNX1_2, Q8TBB1; [3]): below the threshold
pKd (SCRIB_2, Q14160; [3]): below the threshold
pKd (TJP1_2, Q07157; [3]): below the threshold
pKd (SHANK1, Q9Y566; [3]): below the threshold
pKd (LIN7C, Q9NUP9; [3]): 3.66
pKd (MPDZ_5, O75970; [3]): below the threshold
pKd (GRIP2_3, Q9C0E4; [3]): below the threshold
pKd (FRMPD4, Q14CM0; [3]): below the threshold
pKd (FRMPD2_3, Q68DX3; [3]): below the threshold
pKd (LNX2_2, Q8N448; [3]): below the threshold
pKd (MAGI3_2, Q5TCQ9; [3]): 4.64
pKd (PICK1, Q9NRD5; [3]): 4.05
pKd (SNTB1, Q13884; [3]): 4.78
pKd (DLG3_2, Q92796; [3]): 4.56
pKd (GORASP2, Q9H8Y8; [3]): below the threshold
pKd (Inadl_2, Q8NI35; [3]): below the threshold
pKd (GRID2IP_1, A4D2P6; [3]): below the threshold
pKd (NHERF3_3, Q5T2W1; [3]): below the threshold
pKd (DFNB31_3, Q9P202; [3]): below the threshold
pKd (GORASP1, Q9BQQ3; [3]): below the threshold
pKd (NHERF3_4, Q5T2W1; [3]): below the threshold
pKd (GRIP1_5, Q9Y3R0; [3]): below the threshold

AEASVACSLC [PTGIR, P43119]
pKd (AHNAK1, Q09666; [1]): below the threshold
pKd (DVL3, Q92997; [1]): below the threshold
pKd (SIPA1L2, Q9P2F8; [1]): below the threshold
pKd (LNX1_2, Q8TBB1; [1]): 3.68
pKd (SCRIB_2, Q14160; [1]): below the threshold
pKd (TJP1_2, Q07157; [1]): below the threshold
pKd (SHANK1, Q9Y566; [1]): 3.65
pKd (LIN7C, Q9NUP9; [1]): below the threshold
pKd (MPDZ_5, O75970; [1]): below the threshold
pKd (GRIP2_3, Q9C0E4; [1]): below the threshold
pKd (FRMPD4, Q14CM0; [1]): below the threshold
pKd (FRMPD2_3, Q68DX3; [1]): below the threshold
pKd (LNX2_2, Q8N448; [1]): 3.78
pKd (MAGI3_2, Q5TCQ9; [1]): below the threshold
pKd (PICK1, Q9NRD5; [1]): below the threshold
pKd (SNTB1, Q13884; [1]): below the threshold
pKd (DLG3_2, Q92796; [1]): 3.69
pKd (GORASP2, Q9H8Y8; [1]): below the threshold
pKd (Inadl_2, Q8NI35; [1]): below the threshold
pKd (GRID2IP_1, A4D2P6; [1]): below the threshold
pKd (NHERF3_3, Q5T2W1; [1]): below the threshold
pKd (DFNB31_3, Q9P202; [1]): 3.75
pKd (GORASP1, Q9BQQ3; [1]): below the threshold
pKd (NHERF3_4, Q5T2W1; [1]): below the threshold
pKd (GRIP1_5, Q9Y3R0; [1]): below the threshold
